Measured values from PMC7152990, “Plasmon-Emitter Hybrid Nanostructures of Gold Nanorod-Quantum Dots with Regulated Energy Transfer as a Universal Nano-Sensor for One-Step Biomarker Detection”.

Biological target: T1, alpha fetoprotein (AFP) (human, UniProt P02771 19-609)
T1 sequence: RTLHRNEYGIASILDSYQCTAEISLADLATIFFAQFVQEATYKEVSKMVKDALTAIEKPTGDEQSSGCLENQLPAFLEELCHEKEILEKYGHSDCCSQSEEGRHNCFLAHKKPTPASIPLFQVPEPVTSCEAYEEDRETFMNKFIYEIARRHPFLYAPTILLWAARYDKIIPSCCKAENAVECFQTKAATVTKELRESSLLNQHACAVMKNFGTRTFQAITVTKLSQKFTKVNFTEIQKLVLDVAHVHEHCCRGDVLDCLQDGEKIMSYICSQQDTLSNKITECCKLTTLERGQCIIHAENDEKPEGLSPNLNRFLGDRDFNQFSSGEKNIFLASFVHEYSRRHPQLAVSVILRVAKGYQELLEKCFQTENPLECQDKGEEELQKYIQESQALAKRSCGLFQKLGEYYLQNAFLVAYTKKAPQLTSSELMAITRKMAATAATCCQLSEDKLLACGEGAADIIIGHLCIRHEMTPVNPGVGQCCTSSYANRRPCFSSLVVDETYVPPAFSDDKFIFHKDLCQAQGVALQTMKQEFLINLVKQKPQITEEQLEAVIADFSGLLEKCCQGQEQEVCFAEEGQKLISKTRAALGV
Assay: plasmon-regulated FRET / LSPR shift aptasensor (Au NR-QDs); 20 ng/mL AFP; LSPR redshift 1.2 nm, fluorescence decrease ~18%; sensor LOD 0.30 ng/mL (not a Kd); aptamer immobilized on Au NR-QDs via glutaraldehyde (room temperature, 2 h, water); AFP binding buffer, pH and temperature not given in the material
Details: protein: commercial

B1: AFP aptamer (ssDNA)
DNA: GTGACGCTCCTAACGCTGACTCAGGTGCAGTTCTCGACTCGGTCTTGATGTGGGTCCTGTCCGTCCGAACCAATC
modifications: 5'-NH2
binding result: binds
